The values below come from PMC9894130, “SV40 T-antigen uses a DNA shearing mechanism to initiate origin unwinding” (Proceedings of the National Academy of Sciences of the …, 2022).

This data set concerns the molecule itself. The experiment in a line: cryo-EM structure; T-Ag^131–627 incubated with AMP-PNP in the absence of DNA (apo form); 3D map at 5.6 Å, rigid-body docking of crystal structures of smaller fragments.

The stoichiometry N is a count of units in the complex or per binding partner.

B1: SV40 large T-Antigen helicase, residues 131-627 (T-Ag^131–627) (domain or fragment)
chain: KVEDPKDFPSELLSFLSHAVFSNRTLACFAIYTTKEKAALLYKKIMEKYSVTFISRHNSYNHNILFFLTPHRHRVSAINNYAQKLCTFSFLICKGVNKEYLMYSALTRDPFSVIEESLPGGLKEHDFNPEEAEETKQVSWKLVTEYAMETKCDDVLLLLGMYLEFQYSFEMCLKCIKKEQPSHYKYHEKHYANAAIFADSKNQKTICQQAVDTVLAKKRVDSLQLTREQMLTNRFNDLLDRMDIMFGSTGSADIEEWMAGVAWLHCLLPKMDSVVYDFLKCMVYNIPKKRYWLFKGPIDSGKTTLAAALLELCGGKALNVNLPLDRLNFELGVAIDQFLVVFEDVKGTGGESRDLPSGQGINNLDNLRDYLDGSVKVNLEKKHLNKRTQIFPPGIVTMNEYSVPKTLQARFVKQIDFRPKDYLKHCLERSEFLLEKRIIQSGIALLLMLIWYRPVAEFAQSIQSRIVEWKERLDKEFSLSVYQKMKFNVAMGIGVLD
notes: Simian Virus 40 large T-Antigen, residues 131-627; lacks the N-terminal DnaJ-homology domain and the extreme C-terminal host-range determination region; holds OBD, ZBD and AAA+ domains; also called J-domain truncated T-Ag; source: expressed in E. coli (details in the SI Appendix)
Take B1: the “stoichiometry N” value is 6.
